This passage reports IC50 and degradation_or_half_life results from PMC8202955, “The nonreceptor tyrosine kinase SRMS inhibits autophagy and promotes tumor growth by phosphorylating the scaffolding protein FKBP51” (PLoS Biology, 2021).

Series [1] deals with T1, SRMS (Src-related kinase lacking C-terminal regulatory tyrosine and N-terminal myristylation sites) (Homo sapiens, UniProt Q9H3Y6).
T1 construct: human SRMS kinase domain (residues 221 to 486)
As to the kind of experiment: peptide substrate mobility shift kinase assay with purified recombinant kinase domain ([…] SRMS, […] ATP). In kind it is biochemical.

For series [2] the following is noted: phosphorylation at Y54.

T1 sequence (Q9H3Y6 221-486): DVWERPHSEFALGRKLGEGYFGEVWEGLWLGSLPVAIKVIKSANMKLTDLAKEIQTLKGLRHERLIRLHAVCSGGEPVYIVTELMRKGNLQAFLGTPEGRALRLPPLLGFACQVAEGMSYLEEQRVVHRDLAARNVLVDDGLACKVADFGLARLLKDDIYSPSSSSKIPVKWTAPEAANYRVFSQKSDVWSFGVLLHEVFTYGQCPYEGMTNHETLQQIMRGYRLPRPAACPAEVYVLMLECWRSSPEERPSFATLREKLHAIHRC

Broadly, the IC50 is the concentration at which inhibition is half-maximal. For the compound `C=CC(=O)N1CCC[C@@H](n2nc(-c3ccc(Oc4ccccc4)cc3)c3c(N)ncnc32)C1` [ibrutinib], the IC50 in series [1] is 33 nM.
FKBP51: SRMS knockout (CRISPR/Cas9): the degradation_or_half_life entry in series [2] is listed as “decreases”.
Same read-out and setting: with FKBP51: ibrutinib (SRMS inhibitor) the entry was “decreases”.
